The values below come from patent publication US20120058499.

The target in data set [1] is T1, Z-Arg-Leu-Arg-Gly-Gly (SEQ ID NO: 1)-amino-luciferin.
T1 chain: RLRGG

Data set [2] concerns the target ubiquitin-7-amino-4-methylcoumarin, P0CG47.
In data set [3] the target is ubiquitin-rhodamine110, P0CG47.
The target in data set [4] is NEDD8-amino-luciferin, Q15843.
Chain of NEDD8-amino-luciferin, Q15843 (Q15843 whole entry, looked up): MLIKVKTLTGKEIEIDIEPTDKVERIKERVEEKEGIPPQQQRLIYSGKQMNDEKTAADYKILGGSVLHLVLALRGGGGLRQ

Chain of ubiquitin-7-amino-4-methylcoumarin, P0CG47 (P0CG47 whole entry, looked up): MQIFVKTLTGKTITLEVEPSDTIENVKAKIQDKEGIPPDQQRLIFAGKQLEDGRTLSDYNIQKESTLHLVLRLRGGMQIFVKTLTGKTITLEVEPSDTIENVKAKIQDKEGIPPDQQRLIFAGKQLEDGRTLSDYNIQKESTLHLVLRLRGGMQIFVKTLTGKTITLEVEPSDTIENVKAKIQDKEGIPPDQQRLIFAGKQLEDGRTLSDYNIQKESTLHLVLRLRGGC
Chain of ubiquitin-rhodamine110, P0CG47 (P0CG47 whole entry, looked up): as above

B1: Otubain2 (Otub2) (protein)
chain: MSETSFNLISEKCDILSILRDHPENRIYRRKIEELSKRFTAIRKTKGDGNCFYRALGYSYLESLLGKSREIFKFKERVLQTPNDLLAAGFEEHKFRNFFNAFYSVVELVEKDGSVSSLLKVFNDQSASDHIVQFLRLLTSAFIRNRADFFRHFIDEEMDIKDFCTHEVEPMATECDHIQITALSQALSIALQVEYVDEMDTALNHHVFPEAATPSVYLLYKTSHYNILYAADKH
On to B1, for which the Signal to Background, luminescence, DUB 10 nM in data set [1] is 1.3 S/B; in the data set with Ub(1-76)-aminoluciferin, 980 S/B. In addition, the Signal to Background, fluorescence, DUB 10 nM is 1.2 S/B in data set [2] and 1.7 S/B in data set [3].

B2: DEN1 (NEDD8-specific protease 1) (protein)
chain: MDPVVLSYMDSLLRQSDVSLLDPPSWLNDHIIGFAFEYFANSQFHDCSDHVSFISPEVTQFIKCTSNPAEIAMFLEPLDLPNKRVVFLAINDNSNQAAGGTHWSLLVYLQDKNSFFHYDSHSRSNSVHAKQVAEKLEAFLGRKGDKLAFVEEKAPAQQNSYDCGMYVICNTEALCQNFFRQQTESLLQLLTPAYITKKRGEWKDLITTLAKK
For the protein B2, the “luminescence (RLUs), 250 nM substrate” value in data set [4] was “A significant increase in signal was observed with the NEDD8-amino-luciferin substrate at a Den1 concentration at least 3-orders of magnitude lower than required for the Z-RLRGG (SEQ ID NO: 1)-amino-luciferin substrate”.
